Source: patent US20060286609A1 (BIOCHECK, published 2006)

T1: Mouse Id3: Histidine (mouse, UniProt P41133 1-119, limits assumed)
T1 construct: E. coli fusion protein (vector pGW07); also called m-Id3: His; not shown: His-tag
T1 sequence (looked up): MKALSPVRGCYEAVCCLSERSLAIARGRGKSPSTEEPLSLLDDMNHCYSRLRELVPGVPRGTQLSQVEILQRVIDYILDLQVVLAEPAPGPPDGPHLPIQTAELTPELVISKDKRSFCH

T2: Human Id4: Histidine (human, UniProt P47928 1-161, limits assumed)
T2 construct: E. coli fusion protein (vector pGW07); also called h-Id4: His; not shown: His-tag
T2 sequence (looked up): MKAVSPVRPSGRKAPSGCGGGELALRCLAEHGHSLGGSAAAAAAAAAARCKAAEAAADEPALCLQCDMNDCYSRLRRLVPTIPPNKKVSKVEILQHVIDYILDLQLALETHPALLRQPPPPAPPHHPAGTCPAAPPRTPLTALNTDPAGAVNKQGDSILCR

T3: Mouse Id2: Histidine (mouse, UniProt P41136 1-134, limits assumed)
T3 construct: E. coli fusion protein (vector pGW07); also called m-Id2: His; not shown: His-tag
T3 sequence (looked up): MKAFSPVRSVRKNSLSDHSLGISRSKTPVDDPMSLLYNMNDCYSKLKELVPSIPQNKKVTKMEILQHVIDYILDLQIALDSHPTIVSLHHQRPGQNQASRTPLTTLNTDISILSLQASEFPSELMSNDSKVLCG

T4: Human Id3: Histidine (human, UniProt Q02535 1-119, limits assumed)
T4 construct: E. coli fusion protein (vector pGW07); also called h-Id3: His; not shown: His-tag
T4 sequence (looked up): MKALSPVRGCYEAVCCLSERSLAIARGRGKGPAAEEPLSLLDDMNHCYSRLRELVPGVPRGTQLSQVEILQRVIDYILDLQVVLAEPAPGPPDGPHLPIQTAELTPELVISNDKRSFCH

T5: Mouse Id4: Histidine (mouse, UniProt P41139 1-161, limits assumed)
T5 construct: E. coli fusion protein (vector pGW07); also called m-Id4: His; not shown: His-tag
T5 sequence (looked up): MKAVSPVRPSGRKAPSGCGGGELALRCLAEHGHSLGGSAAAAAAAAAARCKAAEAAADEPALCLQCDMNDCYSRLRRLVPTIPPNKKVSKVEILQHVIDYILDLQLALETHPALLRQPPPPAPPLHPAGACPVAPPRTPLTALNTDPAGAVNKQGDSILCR

T6: Human Id2: Histidine (human, UniProt Q02363 1-134, limits assumed)
T6 construct: E. coli fusion protein (vector pGW07); also called h-Id2: His; not shown: His-tag
T6 sequence (looked up): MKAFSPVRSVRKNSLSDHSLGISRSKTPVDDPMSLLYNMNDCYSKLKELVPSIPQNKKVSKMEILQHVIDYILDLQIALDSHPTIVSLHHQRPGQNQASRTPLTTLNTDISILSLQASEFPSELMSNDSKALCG

T7: Mouse Id1: Histidine (mouse, UniProt P20067-2 1-148)
T7 construct: E. coli fusion protein (vector pGW07); also called m-Id1-His; not shown: His-tag
T7 sequence: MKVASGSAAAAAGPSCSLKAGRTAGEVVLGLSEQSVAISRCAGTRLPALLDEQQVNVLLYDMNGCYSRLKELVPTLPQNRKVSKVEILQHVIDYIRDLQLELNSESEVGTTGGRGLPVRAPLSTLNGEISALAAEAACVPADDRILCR


What was measured:
Mouse Id3: Histidine [1] = target: T1, Mouse Id3: Histidine; assay: ELISA, coated antigen, Ab 0.500 ug/ml
Human Id4: Histidine [2] = target: T2, Human Id4: Histidine; assay: ELISA, coated antigen, Ab 0.500 ug/ml
Mouse Id2: Histidine [3] = target: T3, Mouse Id2: Histidine; assay: ELISA, coated antigen, Ab 0.500 ug/ml
Human Id3: Histidine [4] = target: T4, Human Id3: Histidine; assay: ELISA, coated antigen, Ab 0.500 ug/ml
Mouse Id4: Histidine [5] = target: T5, Mouse Id4: Histidine; assay: ELISA, coated antigen, Ab 0.500 ug/ml
Human Id2: Histidine [6] = target: T6, Human Id2: Histidine; assay: ELISA, coated antigen, Ab 0.500 ug/ml
Mouse Id3: Histidine [7] = target: T1, Mouse Id3: Histidine; assay: ELISA, coated antigen, Ab 0.000 ug/ml (blank, diluent only)
Mouse Id1: Histidine = target: T7, Mouse Id1: Histidine; assay: as above
Human Id4: Histidine [8] = target: T2, Human Id4: Histidine; assay: as above
Mouse Id2: Histidine [9] = target: T3, Mouse Id2: Histidine; assay: as above
Human Id3: Histidine [10] = target: T4, Human Id3: Histidine; assay: as above
Mouse Id4: Histidine [11] = target: T5, Mouse Id4: Histidine; assay: as above
Human Id2: Histidine [12] = target: T6, Human Id2: Histidine; assay: as above
Mouse Id3: Histidine [13] = target: T1, Mouse Id3: Histidine; assay: ELISA, coated antigen, Ab 0.025 ug/ml
Human Id4: Histidine [14] = target: T2, Human Id4: Histidine; assay: ELISA, coated antigen, Ab 0.025 ug/ml
Mouse Id4: Histidine [15] = target: T5, Mouse Id4: Histidine; assay: ELISA, coated antigen, Ab 0.025 ug/ml
Mouse Id3: Histidine [16] = target: T1, Mouse Id3: Histidine; assay: ELISA, coated antigen; relative to mouse Id1
Human Id4: Histidine [17] = target: T2, Human Id4: Histidine; assay: ELISA, coated antigen; relative to mouse Id1
Mouse Id2: Histidine [18] = target: T3, Mouse Id2: Histidine; assay: ELISA, coated antigen; relative to mouse Id1
Human Id3: Histidine [19] = target: T4, Human Id3: Histidine; assay: ELISA, coated antigen; relative to mouse Id1
Mouse Id4: Histidine [20] = target: T5, Mouse Id4: Histidine; assay: ELISA, coated antigen; relative to mouse Id1
Human Id2: Histidine [21] = target: T6, Human Id2: Histidine; assay: ELISA, coated antigen; relative to mouse Id1

Molecule | A450 (Mouse Id3: Histidine [1]) [A450] | A450 (Human Id4: Histidine [2]) [A450] | A450 (Mouse Id2: Histidine [3]) [A450] | A450 (Human Id3: Histidine [4]) [A450] | A450 (Mouse Id4: Histidine [5]) [A450] | A450 (Human Id2: Histidine [6]) [A450] | A450 (Mouse Id3: Histidine [7]) [A450] | A450 (Mouse Id1: Histidine) [A450] | A450 (Human Id4: Histidine [8]) [A450] | A450 (Mouse Id2: Histidine [9]) [A450] | A450 (Human Id3: Histidine [10]) [A450] | A450 (Mouse Id4: Histidine [11]) [A450] | A450 (Human Id2: Histidine [12]) [A450] | A450 (Mouse Id3: Histidine [13]) [A450] | A450 (Human Id4: Histidine [14]) [A450] | A450 (Mouse Id4: Histidine [15]) [A450] | Cross-reactivity (%) (Mouse Id3: Histidine [16]) | Cross-reactivity (%) (Human Id4: Histidine [17]) | Cross-reactivity (%) (Mouse Id2: Histidine [18]) | Cross-reactivity (%) (Human Id3: Histidine [19]) | other results
rabbit monoclonal anti-human Id1, clone #BCH-2/#5-3 (antibody) | 0.05 | 0.056 | 0.049 | 0.052 | 0.05 | 0.062 | 0.058 | 0.046 | 0.046 | 0.051 | 0.052 | 0.045 | 0.049 | 0.046 | 0.049 | 0.047 | – | – | – | – | –
rabbit monoclonal anti-mouse/human Id1, clone #BCH-1/#195-14 (antibody) | 0.051 | 0.048 | 0.057 | 0.053 | 0.049 | 0.072 | 0.05 | 0.045 | 0.046 | 0.051 | 0.049 | 0.047 | 0.058 | 0.047 | 0.045 | 0.046 | < 1 | < 1 | < 1 | < 1 | Cross-reactivity (%) (Mouse Id4: Histidine [20]): < 1%; Cross-reactivity (%) (Human Id2: Histidine [21]): < 1%
rabbit monoclonal anti-mouse Id1, clone #BCH-1/#37-2 (antibody, V domains shown, Rabbit IgG from hybridoma, Protein G purified; also called m Id1 MoAb 37-2; Rabbit Monoclonal Anti-Mouse Id1 (#37-2)) VH: QSVEESGGRLVTPGTPLTLTCKVSGFDINSYAMDWFRQAPGKGLEWIGMMSTRGNTYYTSWAKGRFTISKTSSTTVDLKMTSLTTEDTATYFCARGGLWGPGTLVTVSS VL: RVLTQTASPVSAAVGGTVTINCQASQSVYNGNRLGWYQLKPGQSPKELIHDASTLASGVPSRFRGSGSGTQFTLTINDVQCDDAATYYCVGSYACSTGDCNVFGGGTEVVVK | – | – | – | – | – | – | – | – | – | – | – | – | – | – | – | – | < 1 | < 1 | < 1 | < 1 | Cross-reactivity (%) (Mouse Id4: Histidine [20]): < 1%; Cross-reactivity (%) (Human Id2: Histidine [21]): < 1%
